Article PMC9482650, “Quantitative fragmentomics allow affinity mapping of interactomes” (Nature Communications, 2022)

T1: ARHGEF11, O15085
T1 sequence (O15085 42-136, limits assumed, looked up): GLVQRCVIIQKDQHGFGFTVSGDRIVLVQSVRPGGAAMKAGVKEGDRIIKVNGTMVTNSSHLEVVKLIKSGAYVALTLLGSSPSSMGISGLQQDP

T2: GRIP1_2, Q9Y3R0
T2 sequence (Q9Y3R0 145-248, limits assumed, looked up): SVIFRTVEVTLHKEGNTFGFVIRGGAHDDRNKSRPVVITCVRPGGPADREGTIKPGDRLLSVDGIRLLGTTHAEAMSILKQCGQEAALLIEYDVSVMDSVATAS

T3: GRIP1_7, Q9Y3R0
T3 sequence (Q9Y3R0 999-1096, limits assumed, looked up): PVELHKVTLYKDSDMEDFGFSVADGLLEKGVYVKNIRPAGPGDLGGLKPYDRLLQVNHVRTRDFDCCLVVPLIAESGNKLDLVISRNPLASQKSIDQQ

T4: PDZD2_2, O15018
T4 sequence (O15018 329-429, limits assumed, looked up): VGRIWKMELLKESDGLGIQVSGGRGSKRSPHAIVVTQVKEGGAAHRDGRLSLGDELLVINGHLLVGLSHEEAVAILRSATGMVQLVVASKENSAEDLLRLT

T5: MPP6, Q9NZW5
T5 sequence (Q9NZW5 125-219, limits assumed, looked up): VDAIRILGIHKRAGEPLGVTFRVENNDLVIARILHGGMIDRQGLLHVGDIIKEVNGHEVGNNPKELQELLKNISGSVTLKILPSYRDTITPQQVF

T6: PCLO, Q9Y6V0
T6 sequence (Q9Y6V0 4491-4600, limits assumed, looked up): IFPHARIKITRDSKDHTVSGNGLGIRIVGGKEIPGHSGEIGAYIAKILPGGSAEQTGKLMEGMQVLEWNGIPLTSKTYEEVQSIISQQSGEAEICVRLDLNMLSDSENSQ

T7: DFNB31_2, Q9P202
T7 sequence (Q9P202 274-371, limits assumed, looked up): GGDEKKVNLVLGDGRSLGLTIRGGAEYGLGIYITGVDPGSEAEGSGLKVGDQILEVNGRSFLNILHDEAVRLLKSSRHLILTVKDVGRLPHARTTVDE

T8: GRIP1_5, Q9Y3R0
T8 sequence (Q9Y3R0 568-668, limits assumed, looked up): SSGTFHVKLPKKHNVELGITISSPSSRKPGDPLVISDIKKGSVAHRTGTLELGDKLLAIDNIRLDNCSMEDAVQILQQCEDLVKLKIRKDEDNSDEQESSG

T9: RAPGEF6, Q8TEU7
T9 sequence (Q8TEU7 525-625, limits assumed, looked up): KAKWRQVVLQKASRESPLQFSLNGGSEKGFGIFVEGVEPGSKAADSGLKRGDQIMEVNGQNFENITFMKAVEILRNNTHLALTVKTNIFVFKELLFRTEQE

T10: GRIP1_3, Q9Y3R0
T10 sequence (Q9Y3R0 247-346, limits assumed, looked up): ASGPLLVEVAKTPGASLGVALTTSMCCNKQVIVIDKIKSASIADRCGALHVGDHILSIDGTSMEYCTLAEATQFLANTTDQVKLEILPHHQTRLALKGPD


Experiments:
Assay in all cases: holdup assay
Set-up in all cases: key: below the threshold = too weak to quantify, mostly under pKd 3.1 to 4
Conditions in all cases: plain residues with an end cap or a label only (N-terminal biotin on a linker: ado-ado)
ARHGEF11, O15085 = molecular target: T1, ARHGEF11, O15085
GRIP1_2, Q9Y3R0 = molecular target: T2, GRIP1_2, Q9Y3R0
TJP2_1, Q9UDY2 = molecular target: TJP2_1, Q9UDY2
GRIP1_7, Q9Y3R0 = molecular target: T3, GRIP1_7, Q9Y3R0
Inadl_3, Q8NI35 = molecular target: Inadl_3, Q8NI35
PDZD2_2, O15018 = molecular target: T4, PDZD2_2, O15018
GORASP1, Q9BQQ3 = molecular target: GORASP1, Q9BQQ3
LIMK2, P53671 = molecular target: LIMK2, P53671
Inadl_6, Q8NI35 = molecular target: Inadl_6, Q8NI35
Inadl_2, Q8NI35 = molecular target: Inadl_2, Q8NI35
SNX27, Q96L92 = molecular target: SNX27, Q96L92
GRID2IP_2, A4D2P6 = molecular target: GRID2IP_2, A4D2P6
Inadl_10, Q8NI35 = molecular target: Inadl_10, Q8NI35
MPP6, Q9NZW5 = molecular target: T5, MPP6, Q9NZW5
PDZRN4_1, Q6ZMN7 = molecular target: PDZRN4_1, Q6ZMN7
MAST2, Q6P0Q8 = molecular target: MAST2, Q6P0Q8
GRIP2_6, Q9C0E4 = molecular target: GRIP2_6, Q9C0E4
MAGI1_2, Q96QZ7 = molecular target: MAGI1_2, Q96QZ7
GRIP2_7, Q9C0E4 = molecular target: GRIP2_7, Q9C0E4
PCLO, Q9Y6V0 = molecular target: T6, PCLO, Q9Y6V0
MAGI2_5, Q86UL8 = molecular target: MAGI2_5, Q86UL8
DFNB31_2, Q9P202 = molecular target: T7, DFNB31_2, Q9P202
GIPC2, Q8TF65 = molecular target: GIPC2, Q8TF65
GRIP1_5, Q9Y3R0 = molecular target: T8, GRIP1_5, Q9Y3R0
Inadl_8, Q8NI35 = molecular target: Inadl_8, Q8NI35
AHNAK1, Q09666 = molecular target: AHNAK1, Q09666
RAPGEF6, Q8TEU7 = molecular target: T9, RAPGEF6, Q8TEU7
GRIP1_3, Q9Y3R0 = molecular target: T10, GRIP1_3, Q9Y3R0

Sequence of PDZRN4_1, Q6ZMN7 (Q6ZMN7 213-318): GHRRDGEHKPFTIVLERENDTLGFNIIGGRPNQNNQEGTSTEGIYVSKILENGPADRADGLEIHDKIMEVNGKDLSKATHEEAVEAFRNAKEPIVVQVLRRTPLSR
Sequence of Inadl_8, Q8NI35 (Q8NI35 1425-1530): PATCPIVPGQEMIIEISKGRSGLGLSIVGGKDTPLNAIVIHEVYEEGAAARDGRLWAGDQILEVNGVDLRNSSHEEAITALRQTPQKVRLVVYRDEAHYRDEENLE
Sequence of LIMK2, P53671 (P53671 143-248): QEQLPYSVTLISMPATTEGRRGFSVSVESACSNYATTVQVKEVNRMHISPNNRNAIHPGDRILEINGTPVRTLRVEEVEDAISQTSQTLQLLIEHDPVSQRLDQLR
Sequence of Inadl_2, Q8NI35 (Q8NI35 238-335): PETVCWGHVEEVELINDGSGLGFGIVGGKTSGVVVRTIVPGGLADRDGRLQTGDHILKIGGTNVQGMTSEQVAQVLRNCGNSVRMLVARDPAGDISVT
Sequence of GORASP1, Q9BQQ3 (Q9BQQ3 1-208): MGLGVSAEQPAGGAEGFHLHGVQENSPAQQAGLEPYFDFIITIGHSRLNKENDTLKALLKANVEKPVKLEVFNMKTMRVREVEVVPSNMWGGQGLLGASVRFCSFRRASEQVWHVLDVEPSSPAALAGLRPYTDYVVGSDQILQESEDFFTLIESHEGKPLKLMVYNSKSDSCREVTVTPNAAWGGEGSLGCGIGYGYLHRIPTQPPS
Sequence of Inadl_6, Q8NI35 (Q8NI35 1058-1167): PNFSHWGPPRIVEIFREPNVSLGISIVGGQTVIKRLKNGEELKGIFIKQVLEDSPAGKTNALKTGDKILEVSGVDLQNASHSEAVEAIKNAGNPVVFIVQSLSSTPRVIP
Sequence of Inadl_3, Q8NI35 (Q8NI35 359-469): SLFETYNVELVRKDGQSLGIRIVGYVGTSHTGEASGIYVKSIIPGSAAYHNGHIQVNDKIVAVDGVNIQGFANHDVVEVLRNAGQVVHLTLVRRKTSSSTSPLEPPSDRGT
Sequence of TJP2_1, Q9UDY2 (Q9UDY2 24-128): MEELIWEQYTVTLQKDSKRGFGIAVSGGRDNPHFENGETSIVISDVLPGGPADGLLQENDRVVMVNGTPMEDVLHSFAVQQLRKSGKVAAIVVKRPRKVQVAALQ
Sequence of MAGI1_2, Q96QZ7 (Q96QZ7 456-580): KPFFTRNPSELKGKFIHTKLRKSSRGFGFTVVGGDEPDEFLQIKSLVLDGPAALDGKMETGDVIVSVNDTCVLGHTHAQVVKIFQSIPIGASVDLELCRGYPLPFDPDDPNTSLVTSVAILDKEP
Sequence of MAGI2_5, Q86UL8 (Q86UL8 915-1017): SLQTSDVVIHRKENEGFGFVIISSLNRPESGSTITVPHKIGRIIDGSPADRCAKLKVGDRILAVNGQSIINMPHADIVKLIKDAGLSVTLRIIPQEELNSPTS
Sequence of GIPC2, Q8TF65 (Q8TF65 112-203): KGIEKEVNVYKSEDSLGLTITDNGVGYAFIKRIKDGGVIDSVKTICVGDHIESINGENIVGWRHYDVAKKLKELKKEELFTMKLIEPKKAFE
Sequence of MAST2, Q6P0Q8 (Q6P0Q8 1099-1202): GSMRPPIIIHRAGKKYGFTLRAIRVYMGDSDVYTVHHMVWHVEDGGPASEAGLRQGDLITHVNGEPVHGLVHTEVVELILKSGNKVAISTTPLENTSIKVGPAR
Sequence of GRIP2_7, Q9C0E4 (Q9C0E4 934-1023): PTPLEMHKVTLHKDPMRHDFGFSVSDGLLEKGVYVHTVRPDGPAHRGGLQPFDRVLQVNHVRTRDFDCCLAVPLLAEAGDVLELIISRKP
Sequence of Inadl_10, Q8NI35 (Q8NI35 1673-1763): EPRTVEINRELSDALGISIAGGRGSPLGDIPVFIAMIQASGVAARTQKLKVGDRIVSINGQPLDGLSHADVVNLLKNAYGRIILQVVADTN
Sequence of GRID2IP_2, A4D2P6 (A4D2P6 272-370): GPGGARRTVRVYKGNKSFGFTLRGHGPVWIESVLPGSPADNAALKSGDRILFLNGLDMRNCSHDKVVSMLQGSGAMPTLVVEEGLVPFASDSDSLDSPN
Sequence of AHNAK1, Q09666 (Q09666 4-100): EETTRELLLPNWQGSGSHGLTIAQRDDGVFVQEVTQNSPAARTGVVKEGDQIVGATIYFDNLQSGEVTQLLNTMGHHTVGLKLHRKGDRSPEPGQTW
Sequence of GRIP2_6, Q9C0E4 (Q9C0E4 648-740): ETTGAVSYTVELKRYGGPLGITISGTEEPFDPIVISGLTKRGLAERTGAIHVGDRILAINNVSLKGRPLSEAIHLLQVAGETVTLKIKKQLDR

Binder | pKd (ARHGEF11, O15085) | pKd (GRIP1_2, Q9Y3R0) | pKd (TJP2_1, Q9UDY2) | pKd (GRIP1_7, Q9Y3R0) | pKd (Inadl_3, Q8NI35) | pKd (PDZD2_2, O15018) | pKd (GORASP1, Q9BQQ3) | pKd (LIMK2, P53671) | pKd (Inadl_6, Q8NI35) | pKd (Inadl_2, Q8NI35) | pKd (SNX27, Q96L92) | pKd (GRID2IP_2, A4D2P6) | pKd (Inadl_10, Q8NI35) | pKd (MPP6, Q9NZW5) | pKd (PDZRN4_1, Q6ZMN7) | pKd (MAST2, Q6P0Q8) | pKd (GRIP2_6, Q9C0E4) | pKd (MAGI1_2, Q96QZ7) | pKd (GRIP2_7, Q9C0E4) | pKd (PCLO, Q9Y6V0) | further results
DFRHKSSFVI [JAM3, Q9BX67] | below the threshold | below the threshold | below the threshold | below the threshold | 4.26 | below the threshold | 4.82 | below the threshold | below the threshold | below the threshold | below the threshold | below the threshold | below the threshold | 3.62 | below the threshold | 3.76 | 4.05 | below the threshold | below the threshold | below the threshold | pKd (MAGI2_5, Q86UL8): below the threshold; pKd (DFNB31_2, Q9P202): below the threshold; pKd (GIPC2, Q8TF65): below the threshold; pKd (GRIP1_5, Q9Y3R0): below the threshold; pKd (Inadl_8, Q8NI35): below the threshold; pKd (AHNAK1, Q09666): below the threshold; pKd (RAPGEF6, Q8TEU7): below the threshold; pKd (GRIP1_3, Q9Y3R0): below the threshold
YPKQMPLSQV [FZD8, Q9H461] | 3.89 | below the threshold | below the threshold | below the threshold | below the threshold | 4.23 | below the threshold | below the threshold | below the threshold | below the threshold | 3.97 | 4.28 | below the threshold | below the threshold | below the threshold | 4.29 | below the threshold | 3.55 | below the threshold | below the threshold | pKd (MAGI2_5, Q86UL8): below the threshold; pKd (DFNB31_2, Q9P202): below the threshold; pKd (GIPC2, Q8TF65): below the threshold; pKd (GRIP1_5, Q9Y3R0): below the threshold; pKd (Inadl_8, Q8NI35): 4.61; pKd (AHNAK1, Q09666): below the threshold; pKd (RAPGEF6, Q8TEU7): below the threshold; pKd (GRIP1_3, Q9Y3R0): below the threshold

The next lines start with results.

pKd (ARHGEF11, O15085) | pKd (GRIP1_2, Q9Y3R0) | pKd (TJP2_1, Q9UDY2) | pKd (GRIP1_7, Q9Y3R0) | pKd (Inadl_3, Q8NI35) | pKd (PDZD2_2, O15018) | pKd (GORASP1, Q9BQQ3) | pKd (LIMK2, P53671) | pKd (Inadl_6, Q8NI35) | pKd (Inadl_2, Q8NI35) | pKd (SNX27, Q96L92) | pKd (GRID2IP_2, A4D2P6) | pKd (Inadl_10, Q8NI35) | pKd (MPP6, Q9NZW5) | pKd (PDZRN4_1, Q6ZMN7) | pKd (MAST2, Q6P0Q8) | pKd (GRIP2_6, Q9C0E4) | pKd (MAGI1_2, Q96QZ7) | pKd (GRIP2_7, Q9C0E4) | pKd (PCLO, Q9Y6V0) | Binder | further results
below the threshold | below the threshold | below the threshold | below the threshold | below the threshold | 4.03 | 3.61 | below the threshold | below the threshold | below the threshold | 3.49 | 3.88 | below the threshold | 3.62 | below the threshold | 4.21 | below the threshold | below the threshold | below the threshold | below the threshold | GQETPLNTFC [MAP7D2, Q96T17] | pKd (MAGI2_5, Q86UL8): below the threshold; pKd (DFNB31_2, Q9P202): below the threshold; pKd (GIPC2, Q8TF65): below the threshold; pKd (GRIP1_5, Q9Y3R0): below the threshold; pKd (Inadl_8, Q8NI35): below the threshold; pKd (AHNAK1, Q09666): below the threshold; pKd (RAPGEF6, Q8TEU7): below the threshold; pKd (GRIP1_3, Q9Y3R0): below the threshold
3.79 | below the threshold | below the threshold | below the threshold | 3.59 | below the threshold | below the threshold | below the threshold | below the threshold | below the threshold | 3.99 | below the threshold | below the threshold | below the threshold | below the threshold | 4.56 | below the threshold | below the threshold | below the threshold | below the threshold | LGHTPFVDEL [UQCRC2, P22695] | pKd (MAGI2_5, Q86UL8): 3.47; pKd (DFNB31_2, Q9P202): below the threshold; pKd (GIPC2, Q8TF65): below the threshold; pKd (GRIP1_5, Q9Y3R0): below the threshold; pKd (Inadl_8, Q8NI35): below the threshold; pKd (AHNAK1, Q09666): below the threshold; pKd (RAPGEF6, Q8TEU7): below the threshold; pKd (GRIP1_3, Q9Y3R0): below the threshold
below the threshold | below the threshold | 4.25 | 3.7 | 3.63 | 6.06 | 3.79 | below the threshold | 4.21 | below the threshold | 4.72 | below the threshold | 3.75 | below the threshold | 4.06 | 4.09 | 3.51 | 3.48 | 3.96 | below the threshold | QYPGSPDSWV [PKP4, Q99569] | pKd (MAGI2_5, Q86UL8): below the threshold; pKd (DFNB31_2, Q9P202): 3.62; pKd (GIPC2, Q8TF65): 3.5; pKd (GRIP1_5, Q9Y3R0): below the threshold; pKd (Inadl_8, Q8NI35): 4.16; pKd (AHNAK1, Q09666): 3.51; pKd (RAPGEF6, Q8TEU7): below the threshold; pKd (GRIP1_3, Q9Y3R0): below the threshold
